{"source": "patent US20260232732A1", "about": "(FUNDACI INSTITUT DE RECERCA CONTRA LA LEUC MIA JOSEP …, published 2026)", "binders": {"B1": {"name": "anti-CCR9 antibody clone 115 (murine, from hybridoma #115) (antibody, V domains shown)", "VH": "QVQLKQSGPELVKPGTSVRVSCTASGYSFTDYIIYWVKQSHGRSLEWIGYIDPNNYNTRYSQKFKGKATLTVDKSSTSAFMHLNSLTSDDSAVYYCARDVYWGQGTTLTVSS", "VL": "DVVMTQTPLSLTVSLGDQASISCRSSQSLVHSNGKTYLQWYLQKPGQSPKLLIYKVSNRFSGVPDRFSGSGSGTDFTLKISRVEAEDLGVYFCAQSTHVWTFGGGTKLEIKR", "notes": "Mouse IgG1"}}, "key": {"[1]": {"molecular_target": "T1, Peptide 3, non-conjugated (SSMEDYVNFN-C) (human)", "T1 construct": "With the extra C-terminal Cys", "T1 peptide": "SSMEDYVNFNC", "experiment": "ELISA; Ab 1 ug/mL; repII", "protocol": "(§1) In brief, plates with each non-conjugated peptide (50 μg/mL) or BSA-conjugated peptide (5 μg/mL) were coated in 0.58M carbonate-bicarbonate buffer pH9.5, 100 μL/well, at 4° C. […] After washing, wells were incubated with the 3, 3′,5,5′-Tetramethylbenzidine (TMB) HRP substrate and reactions were stopped with 2M HCl and OD450 was recorded."}, "[2]": {"molecular_target": "T2, BSA (negative control coating) (bovine, UniProt P02769 25-607)", "T2 construct": "also called Negative control BSA", "T2 sequence (P02769 25-607 limits assumed)": "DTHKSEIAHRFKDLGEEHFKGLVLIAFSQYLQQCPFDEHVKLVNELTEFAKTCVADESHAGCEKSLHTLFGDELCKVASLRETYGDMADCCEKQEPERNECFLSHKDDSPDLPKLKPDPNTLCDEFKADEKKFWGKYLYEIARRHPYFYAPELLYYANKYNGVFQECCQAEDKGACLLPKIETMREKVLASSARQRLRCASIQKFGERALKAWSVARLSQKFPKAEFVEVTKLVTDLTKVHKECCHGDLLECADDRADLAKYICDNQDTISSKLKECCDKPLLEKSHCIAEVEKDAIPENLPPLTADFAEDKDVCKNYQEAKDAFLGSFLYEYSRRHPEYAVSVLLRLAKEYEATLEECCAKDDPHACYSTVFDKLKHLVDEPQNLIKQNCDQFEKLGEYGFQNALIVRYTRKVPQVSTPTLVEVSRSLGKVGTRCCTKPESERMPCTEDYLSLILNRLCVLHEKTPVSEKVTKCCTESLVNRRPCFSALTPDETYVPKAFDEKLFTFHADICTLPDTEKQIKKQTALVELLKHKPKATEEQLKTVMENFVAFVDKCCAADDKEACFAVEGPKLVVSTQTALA", "experiment": "ELISA; Ab 1 ug/mL; repII", "protocol": "as §1"}, "[3]": {"molecular_target": "T3, Peptide 4-BSA (SMEDYVNFNF-C conjugated to BSA) (human)", "T3 peptide": "SMEDYVNFNFC(BSA)", "experiment": "ELISA; Ab 1 ug/mL; repII", "protocol": "as §1"}, "[4]": {"molecular_target": "T4, antigen peptide-BSA (immunisation peptide #1 MADDYGSESTSSMEDYVNFNF-C conjugated to BSA) (human, extra C-terminal Cys conjugated to BSA)", "T4 construct": "also called Positive control antigen peptide-BSA; MADDY peptide", "T4 peptide": "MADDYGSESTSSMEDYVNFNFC", "experiment": "ELISA; Ab 1 ug/mL; repII", "protocol": "as §1"}, "[5]": {"molecular_target": "T5, Peptide 4, non-conjugated (SMEDYVNFNF-C) (human)", "T5 construct": "With the extra C-terminal Cys", "T5 peptide": "SMEDYVNFNFC", "experiment": "ELISA; Ab 1 ug/mL; repII", "protocol": "as §1"}, "[6]": {"molecular_target": "T6, Peptide 1-BSA (MADDYGSEST-C conjugated to BSA) (human)", "T6 peptide": "MADDYGSESTC(BSA)", "experiment": "ELISA; Ab 1 ug/mL; repII", "protocol": "as §1"}, "[7]": {"molecular_target": "T7, Peptide 3-BSA (SSMEDYVNFN-C conjugated to BSA) (human)", "T7 peptide": "SSMEDYVNFNC(BSA)", "experiment": "ELISA; Ab 1 ug/mL; repII", "protocol": "as §1"}, "[8]": {"molecular_target": "T8, Peptide 1, non-conjugated (MADDYGSEST-C) (human)", "T8 construct": "With the extra C-terminal Cys", "T8 peptide": "MADDYGSESTC", "experiment": "ELISA; Ab 1 ug/mL; repII", "protocol": "as §1"}, "[9]": {"molecular_target": "T9, Peptide 2-BSA (GSESTSSMED-C conjugated to BSA) (human)", "T9 peptide": "GSESTSSMEDC(BSA)", "experiment": "ELISA; Ab 1 ug/mL; repII", "protocol": "as §1"}, "[10]": {"molecular_target": "T10, Peptide 2, non-conjugated (GSESTSSMED-C) (human)", "T10 construct": "With the extra C-terminal Cys", "T10 peptide": "GSESTSSMEDC", "experiment": "ELISA; Ab 1 ug/mL; repII", "protocol": "as §1"}, "[11]": {"molecular_target": "T8, Peptide 1, non-conjugated (MADDYGSEST-C)", "experiment": "ELISA, non-conjugated peptide coated", "protocol": "as §1"}, "[12]": {"molecular_target": "T10, Peptide 2, non-conjugated (GSESTSSMED-C)", "experiment": "ELISA, non-conjugated peptide coated", "protocol": "as §1"}, "[13]": {"molecular_target": "T2, BSA (negative control coating)", "experiment": "ELISA; Ab 0.0625 ug/mL; repI", "protocol": "as §1"}, "[14]": {"molecular_target": "T3, Peptide 4-BSA (SMEDYVNFNF-C conjugated …)", "experiment": "ELISA; Ab 0.0625 ug/mL; repI", "protocol": "as §1"}, "[15]": {"molecular_target": "T6, Peptide 1-BSA (MADDYGSEST-C conjugated …)", "experiment": "ELISA; Ab 0.0625 ug/mL; repI", "protocol": "as §1"}, "[16]": {"molecular_target": "T7, Peptide 3-BSA (SSMEDYVNFN-C conjugated …)", "experiment": "ELISA; Ab 0.0625 ug/mL; repI", "protocol": "as §1"}, "[17]": {"molecular_target": "T8, Peptide 1, non-conjugated (MADDYGSEST-C)", "experiment": "ELISA; Ab 0.0625 ug/mL; repI", "protocol": "as §1"}, "[18]": {"molecular_target": "T9, Peptide 2-BSA (GSESTSSMED-C conjugated …)", "experiment": "ELISA; Ab 0.0625 ug/mL; repI", "protocol": "as §1"}, "[19]": {"molecular_target": "T1, Peptide 3, non-conjugated (SSMEDYVNFN-C)", "experiment": "ELISA; Ab 0.03125 ug/mL; repI", "protocol": "as §1"}, "[20]": {"molecular_target": "T2, BSA (negative control coating)", "experiment": "ELISA; Ab 0.03125 ug/mL; repI", "protocol": "as §1"}, "[21]": {"molecular_target": "T3, Peptide 4-BSA (SMEDYVNFNF-C conjugated …)", "experiment": "ELISA; Ab 0.03125 ug/mL; repI", "protocol": "as §1"}, "[22]": {"molecular_target": "T4, antigen peptide-BSA (immunisation …)", "experiment": "ELISA; Ab 0.03125 ug/mL; repI", "protocol": "as §1"}, "[23]": {"molecular_target": "T5, Peptide 4, non-conjugated (SMEDYVNFNF-C)", "experiment": "ELISA; Ab 0.03125 ug/mL; repI", "protocol": "as §1"}, "[24]": {"molecular_target": "T6, Peptide 1-BSA (MADDYGSEST-C conjugated …)", "experiment": "ELISA; Ab 0.03125 ug/mL; repI", "protocol": "as §1"}, "[25]": {"molecular_target": "T7, Peptide 3-BSA (SSMEDYVNFN-C conjugated …)", "experiment": "ELISA; Ab 0.03125 ug/mL; repI", "protocol": "as §1"}, "[26]": {"molecular_target": "T8, Peptide 1, non-conjugated (MADDYGSEST-C)", "experiment": "ELISA; Ab 0.03125 ug/mL; repI", "protocol": "as §1"}, "[27]": {"molecular_target": "T9, Peptide 2-BSA (GSESTSSMED-C conjugated …)", "experiment": "ELISA; Ab 0.03125 ug/mL; repI", "protocol": "as §1"}, "[28]": {"molecular_target": "T10, Peptide 2, non-conjugated (GSESTSSMED-C)", "experiment": "ELISA; Ab 0.03125 ug/mL; repI", "protocol": "as §1"}}, "note": "Where no end group is shown, it is not given here."}
{"binder": "B1", "values": [{"measurement": "OD450", "setting": "[1]", "result": 2.1, "unit": "OD"}, {"measurement": "OD450", "setting": "[2]", "result": 0.02, "unit": "OD"}, {"measurement": "OD450", "setting": "[3]", "result": 2.75, "unit": "OD"}, {"measurement": "OD450", "setting": "[4]", "result": 2.68, "unit": "OD"}, {"measurement": "OD450", "setting": "[5]", "result": 2.46, "unit": "OD"}, {"measurement": "OD450", "setting": "[6]", "result": 0.03, "unit": "OD"}, {"measurement": "OD450", "setting": "[7]", "result": 2.16, "unit": "OD"}, {"measurement": "OD450", "setting": "[8]", "result": 0.02, "unit": "OD"}, {"measurement": "OD450", "setting": "[9]", "result": 0.03, "unit": "OD"}, {"measurement": "OD450", "setting": "[10]", "result": 0.02, "unit": "OD"}, {"measurement": "binding result", "setting": "[11]", "result": "no binding (tested: 1 ug/mL)"}, {"measurement": "binding result", "setting": "[12]", "result": "no binding (tested: 1 ug/mL)"}, {"measurement": "OD450", "setting": "[13]", "result": 0.01, "unit": "OD"}, {"measurement": "OD450", "setting": "[14]", "result": 1.98, "unit": "OD"}, {"measurement": "OD450", "setting": "[15]", "result": 0.01, "unit": "OD"}, {"measurement": "OD450", "setting": "[16]", "result": 1.88, "unit": "OD"}, {"measurement": "OD450", "setting": "[17]", "result": 0.01, "unit": "OD"}, {"measurement": "OD450", "setting": "[18]", "result": 0.01, "unit": "OD"}, {"measurement": "OD450", "setting": "[19]", "result": 1.65, "unit": "OD"}, {"measurement": "OD450", "setting": "[20]", "result": 0.01, "unit": "OD"}, {"measurement": "OD450", "setting": "[21]", "result": 1.44, "unit": "OD"}, {"measurement": "OD450", "setting": "[22]", "result": 1.28, "unit": "OD"}, {"measurement": "OD450", "setting": "[23]", "result": 0.67, "unit": "OD"}, {"measurement": "OD450", "setting": "[24]", "result": 0.01, "unit": "OD"}, {"measurement": "OD450", "setting": "[25]", "result": 1.66, "unit": "OD"}, {"measurement": "OD450", "setting": "[26]", "result": 0.01, "unit": "OD"}, {"measurement": "OD450", "setting": "[27]", "result": 0.01, "unit": "OD"}, {"measurement": "OD450", "setting": "[28]", "result": 0.01, "unit": "OD"}]}
